# B1: ceruloplasmin (protein)
# chain: KEKHYYIGIIETTWDYASDHGEKKLISVDTEHSNIYLQNGPDRIGRLYKKALYLQYTDETFRTTIEKPVWLGFLGPIIKAETGDKVYVHLKNLASRPYTFHSHGITYYKEHEGAIYPDNTTDFQRADDKVYPGEQYTYMLLATEEQSPGEGDGNCVTRIYHSHIDAPKDIASGLIGPLIICKKDSLDKEKEKHIDREFVVMFSVVDENFSWYLEDNIKTYCSEPEKVDKDNEDFQESNRMYSVNGYTFGSLPGLSMCAEDRVKWYLFGMGNEVDVHAAFFHGQALTNKNYRIDTINLFPATLFDAYMVAQNPGEWMLSCQNLNHLKAGLQAFFQVQECNKSSSKDNIRGKHVRHYYIAAEEIIWNYAPSGIDIFTKENLTAPGSDSAVFFEQGTTRIGGSYKKLVYREYTDASFTNRKERGPEEEHLGILGPVIWAEVGDTIRVTFHNKGAYPLSIEPIGVRFNKNNEGTYYSPNYNPQSRSVPPSASHVAPTETFTYEWTVPKEVGPTNADPVCLAKMYYSAVEPTKDIFTGLIGPMKICKKGSLHANGRQKDVDKEFYLFPTVFDENESLLLEDNIRMFTTAPDQVDKEDEDFQESNKMHSMNGFMYGNQPGLTMCKGDSVVWYLFSAGNEADVHGIYFSGNTYLWRGERRDTANLFPQTSLTLHMWPDTEGTFNVECLTTDHYTGGMKQKYTVNQCRRQSEDSTFYLGERTYYIAAVEVEWDYSPQREWEKELHHLQEQNVSNAFLDKGEFYIGSKYKKVVYRQYTDSTFRVPVERKAEEEHLGILGPQLHADVGDKVKIIFKNMATRPYSIHAHGVQTESSTVTPTLPGETLTYVWKIPERSGAGTEDSACIPWAYYSTVDQVKDLYSGLIGPLIVCRRPYLKVFNPRRKLEFALLFLVFDENESWYLDDNIKTYSDHPEKVNKDDEEFIESNKMHAINGRMFGNLQGLTMHVGDEVNWYLMGMGNEIDLHTVHFHGHSFQYKHRGVYSSDVFDIFPGTYQTLEMFPRTPGIWLLHCHVTDHIHAGMETTYTVLQNEDTKSG
# Columns and labels:
# biotinylated-Aβ42 = biotinylated-Aβ42 (Homo sapiens, UniProt P05067); experiment: Single-molecule TIRF imaging of Cy3-CP on immobilized biotinylated Aβ42; type: binding
# [1] = Fluorescence spectra of FAM-Aβ42 during incubation in PBS; type: physicochemical; details: PBS buffer, 0 to 60 minutes, in the presence of CP
# Aβ42 = Aβ42 (Homo sapiens, UniProt P05067); experiment: Fluorescence polarization; type: binding; details: read-out: apparent Kd for the Aβ42/CP interaction; fluorescence polarization of FAM-Aβ42 with increasing concentrations of CP
# Chain of Aβ42 (P05067 672-713, one chain of several): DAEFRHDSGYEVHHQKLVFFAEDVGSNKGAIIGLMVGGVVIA
# Chain of biotinylated-Aβ42 (P05067 672-713): as the sequence (P05067 672-713, one chain of several) above
molecule,measurement,setting,value
B1,TIRF image brightness of CP/Aβ versus CP alone,"biotinylated-Aβ42; Cy3-labeled CP, imaging for 10 minutes",much higher
same,half-lifetime of stable binding,"biotinylated-Aβ42; TIRF, 100 nM CP-Cy3, no Vc",~62.3 s
same,half-lifetime of transient binding,"biotinylated-Aβ42; TIRF, 100 nM CP-Cy3, no Vc",about 14.6 s
same,stable K(slow) of CP/Aβ binding,"biotinylated-Aβ42; TIRF, 100 nM CP-Cy3, no Vc, unit not given",about 0.011
same,half-lifetime of stable binding with Vc,"biotinylated-Aβ42; TIRF, 100 nM CP-Cy3 with 250 μM Vc",39.0 s
same,effect of CP on the fluorescence intensity decrease of FAM-Aβ42,[1],considerably attenuated
same,Kd,Aβ42,123 ± 6.7 nM
